Laboratory results as given in the supplement of paper PMC7125110.
± gives the standard error. This sample holds only a part of the variants without activity.

B1: glmS ribozyme (parent)
chain: AUAAAAGCGCCAGAACUACAGAAAUGUAGUUGACGAGGAGGAGGUUUAUCGAAUUUUCGGCGGAUGCCUCCAAA

Tests used:
Conditions in all cases: with glucosamine-6-phosphate
glucosamine-6-phosphate [1] = variants of: B1; assay: self-cleavage kobs at 40 uM GlcN6P; higher = faster cleavage; RNA array
Summary of the method: (§1)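 Glucosamine-6-phosphate, from 40 μM to 10 mM in HEPES/KCl/Mg(OAc)2 buffer, was flowed over sequenced MiSeq chips carrying barcoded ribozyme variants transcribed in situ by E. coli RNA polymerase. A hybridised Cy3 probe tracked the variants at 37 °C as tiles were imaged over ~14 h. kobs, kcat and KM were obtained by fitting normalised per-tile medians to exponential decays and then applying weighted Michaelis–Menten fits across concentrations.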

glucosamine-6-phosphate [2] = variants of: B1; assay: self-cleavage kobs at 160 uM GlcN6P; higher = faster cleavage; RNA array
Summary of the method: as §1

glucosamine-6-phosphate [3] = variants of: B1; assay: self-cleavage kobs at 640 uM GlcN6P; higher = faster cleavage; RNA array
Summary of the method: as §1

glucosamine-6-phosphate [4] = variants of: B1; assay: self-cleavage kobs at 10000 uM GlcN6P; higher = faster cleavage; RNA array
Summary of the method: as §1

glucosamine-6-phosphate [5] = variants of: B1; assay: self-cleavage kobs at 2500 uM GlcN6P; higher = faster cleavage; RNA array
Summary of the method: as §1

Variant	self-cleavage kobs at 40 uM GlcN6P (glucosamine-6-phosphate [1])	self-cleavage kobs at 160 uM GlcN6P (glucosamine-6-phosphate [2])	self-cleavage kobs at 640 uM GlcN6P (glucosamine-6-phosphate [3])	self-cleavage kobs at 10000 uM GlcN6P (glucosamine-6-phosphate [4])	self-cleavage kobs at 2500 uM GlcN6P (glucosamine-6-phosphate [5])
G29A U55G G60C	< 1e-05 s⁻¹	–	–	–	–
A33C G51C G63C A64U	< 1e-05 s⁻¹	< 1e-05 s⁻¹	< 1e-05 s⁻¹	< 1e-05 s⁻¹	–
G7A C11G A12U A42C G44A G51C A53U C71U	< 1e-05 s⁻¹	–	–	< 1e-05 s⁻¹	–
C10G A15G A64G	< 1e-05 s⁻¹	–	–	–	–
G7U U69A	3.92e-05 ± 1.7e-05 s⁻¹	0.000853 ± 0.00032 s⁻¹	–	–	–
G44A G59C C71U	< 1e-05 s⁻¹	–	–	< 1e-05 s⁻¹	–
G7A A12C U30G	< 1e-05 s⁻¹	–	–	–	–
C16G U49C	< 1e-05 s⁻¹	< 1e-05 s⁻¹	–	< 1e-05 s⁻¹	< 1e-05 s⁻¹
A12C A53G C68U	6.52e-05 ± 1.6e-05 s⁻¹	–	–	–	–
A14G U31G G40A C71A	5.41e-05 ± 1.8e-05 s⁻¹	–	–	0.000822 ± 0.00016 s⁻¹	–
G37C U46G	< 1e-05 s⁻¹	< 1e-05 s⁻¹	< 1e-05 s⁻¹	–	–
A36C G41A G43A	< 1e-05 s⁻¹	–	–	–	–
A12C C58A G63A	< 1e-05 s⁻¹	–	–	–	–
A15U G63U	< 1e-05 s⁻¹	< 1e-05 s⁻¹	< 1e-05 s⁻¹	< 1e-05 s⁻¹	–
G38C U65G G66A	< 1e-05 s⁻¹	< 1e-05 s⁻¹	< 1e-05 s⁻¹	–	< 1e-05 s⁻¹
G9C G13U G44C U45G	< 1e-05 s⁻¹	–	< 1e-05 s⁻¹	–	< 1e-05 s⁻¹
G7A C16A U31C G32U G41C	< 1e-05 s⁻¹	–	–	–	–
A12G A64U C71U	< 1e-05 s⁻¹	–	–	–	–
A6C G51C	< 1e-05 s⁻¹	< 1e-05 s⁻¹	< 1e-05 s⁻¹	< 1e-05 s⁻¹	< 1e-05 s⁻¹
A15G A33G G41C	< 1e-05 s⁻¹	–	–	< 1e-05 s⁻¹	–
C8G U31C A36U U57A	< 1e-05 s⁻¹	–	–	–	< 1e-05 s⁻¹
C16G G29U	0.000398 ± 5.9e-05 s⁻¹	0.00129 ± 0.00034 s⁻¹	0.00183 ± 0.00046 s⁻¹	0.0203 ± 0.0044 s⁻¹	0.00758 ± 0.0015 s⁻¹
A36G G60U G66U	< 1e-05 s⁻¹	–	< 1e-05 s⁻¹	< 1e-05 s⁻¹	< 1e-05 s⁻¹
G13C C61U	< 1e-05 s⁻¹	< 1e-05 s⁻¹	< 1e-05 s⁻¹	–	< 1e-05 s⁻¹

Variant	self-cleavage kobs at 40 uM GlcN6P (glucosamine-6-phosphate [1])	self-cleavage kobs at 160 uM GlcN6P (glucosamine-6-phosphate [2])	self-cleavage kobs at 640 uM GlcN6P (glucosamine-6-phosphate [3])	self-cleavage kobs at 10000 uM GlcN6P (glucosamine-6-phosphate [4])	self-cleavage kobs at 2500 uM GlcN6P (glucosamine-6-phosphate [5])
G37U A39G A42U C70U	< 1e-05 s⁻¹	–	–	–	–
G51C U69C	< 1e-05 s⁻¹	–	–	< 1e-05 s⁻¹	< 1e-05 s⁻¹
A14C G41A C50G G59U	< 1e-05 s⁻¹	–	–	–	–
U49C G60A	< 1e-05 s⁻¹	< 1e-05 s⁻¹	–	< 1e-05 s⁻¹	–
C34A G60A C71A	< 1e-05 s⁻¹	–	–	< 1e-05 s⁻¹	–
A12G U30A A42G U54C	< 1e-05 s⁻¹	–	–	6.88e-05 ± 2.4e-05 s⁻¹	–
A39C C50A G60A C61U U65A	< 1e-05 s⁻¹	–	–	< 1e-05 s⁻¹	–
U46C G59A	< 1e-05 s⁻¹	–	< 1e-05 s⁻¹	4.71e-05 ± 1.4e-05 s⁻¹	–
A12C G43C G66U	< 1e-05 s⁻¹	–	–	< 1e-05 s⁻¹	–
C16U U31G C50G C70A	0.000109 ± 2.3e-05 s⁻¹	–	–	6.25e-05 ± 1.3e-05 s⁻¹	–
G37U G63A	< 1e-05 s⁻¹	< 1e-05 s⁻¹	< 1e-05 s⁻¹	< 1e-05 s⁻¹	< 1e-05 s⁻¹
A6U C11U G44U	< 1e-05 s⁻¹	–	< 1e-05 s⁻¹	< 1e-05 s⁻¹	< 1e-05 s⁻¹
A33U G41A U46C	< 1e-05 s⁻¹	–	–	< 1e-05 s⁻¹	–
A6G A48U	< 1e-05 s⁻¹	< 1e-05 s⁻¹	< 1e-05 s⁻¹	< 1e-05 s⁻¹	< 1e-05 s⁻¹
C34A C70G	< 1e-05 s⁻¹	–	–	–	< 1e-05 s⁻¹
G7A U46C	< 1e-05 s⁻¹	–	< 1e-05 s⁻¹	< 1e-05 s⁻¹	–
G43C G62U	< 1e-05 s⁻¹	< 1e-05 s⁻¹	< 1e-05 s⁻¹	< 1e-05 s⁻¹	< 1e-05 s⁻¹
G41U G43U U57G G62A C68A	< 1e-05 s⁻¹	< 1e-05 s⁻¹	< 1e-05 s⁻¹	< 1e-05 s⁻¹	< 1e-05 s⁻¹
C8U G40C	< 1e-05 s⁻¹	–	< 1e-05 s⁻¹	< 1e-05 s⁻¹	–
C8G G41U C61U	< 1e-05 s⁻¹	< 1e-05 s⁻¹	–	< 1e-05 s⁻¹	–
G9A G32A	< 1e-05 s⁻¹	–	< 1e-05 s⁻¹	< 1e-05 s⁻¹	< 1e-05 s⁻¹
G7C C8G C50G U55A	7.03e-05 ± 2.9e-05 s⁻¹	–	–	–	–
G60A C61A C67G C68G	4.45e-05 ± 2.2e-05 s⁻¹	–	–	–	–
G9C U46C	< 1e-05 s⁻¹	–	< 1e-05 s⁻¹	< 1e-05 s⁻¹	–

Variant	self-cleavage kobs at 40 uM GlcN6P (glucosamine-6-phosphate [1])	self-cleavage kobs at 160 uM GlcN6P (glucosamine-6-phosphate [2])	self-cleavage kobs at 640 uM GlcN6P (glucosamine-6-phosphate [3])	self-cleavage kobs at 10000 uM GlcN6P (glucosamine-6-phosphate [4])	self-cleavage kobs at 2500 uM GlcN6P (glucosamine-6-phosphate [5])
U31G G32U	5.84e-05 ± 1e-05 s⁻¹	–	0.000363 ± 7.2e-05 s⁻¹	0.00232 ± 0.00036 s⁻¹	0.000925 ± 0.00026 s⁻¹
G43C U56C	< 1e-05 s⁻¹	< 1e-05 s⁻¹	< 1e-05 s⁻¹	< 1e-05 s⁻¹	–
G29A G51A	< 1e-05 s⁻¹	–	–	< 1e-05 s⁻¹	–
U31A G62U	< 1e-05 s⁻¹	< 1e-05 s⁻¹	< 1e-05 s⁻¹	< 1e-05 s⁻¹	–
U47A C50U	< 1e-05 s⁻¹	–	–	5.52e-05 ± 1.2e-05 s⁻¹	–
A33U G38U A42U U56C G63U	< 1e-05 s⁻¹	–	–	< 1e-05 s⁻¹	–
A42C U65G	< 1e-05 s⁻¹	< 1e-05 s⁻¹	< 1e-05 s⁻¹	–	–
A15U C34U	< 1e-05 s⁻¹	< 1e-05 s⁻¹	< 1e-05 s⁻¹	–	< 1e-05 s⁻¹
A12U G40A G44U	< 1e-05 s⁻¹	–	< 1e-05 s⁻¹	–	–
A14G U69C C70U	0.000104 ± 3.2e-05 s⁻¹	–	–	0.00316 ± 0.00074 s⁻¹	–
G44A G59U C71A	< 1e-05 s⁻¹	< 1e-05 s⁻¹	< 1e-05 s⁻¹	< 1e-05 s⁻¹	< 1e-05 s⁻¹
A33G A42G U46G U56A	< 1e-05 s⁻¹	–	< 1e-05 s⁻¹	< 1e-05 s⁻¹	< 1e-05 s⁻¹
G9C A48C	< 1e-05 s⁻¹	–	< 1e-05 s⁻¹	–	< 1e-05 s⁻¹
G7A C8G A12C	< 1e-05 s⁻¹	–	–	–	–
U30A U69G	< 1e-05 s⁻¹	–	–	–	–
A14G A15C U54G	0.000827 ± 0.00016 s⁻¹	–	–	0.048 ± 0.017 s⁻¹	–
C11U U30C C50U	< 1e-05 s⁻¹	–	–	< 1e-05 s⁻¹	–
U49G C61A G62U	< 1e-05 s⁻¹	–	< 1e-05 s⁻¹	< 1e-05 s⁻¹	< 1e-05 s⁻¹
A36C G60U C67A	< 1e-05 s⁻¹	–	–	< 1e-05 s⁻¹	–
U31A U47G C70U	0.000179 ± 3.9e-05 s⁻¹	0.000219 ± 4.3e-05 s⁻¹	0.000928 ± 0.00014 s⁻¹	0.00277 ± 0.00063 s⁻¹	0.000719 ± 0.00018 s⁻¹
A6G U46G C50G U65G C70A	< 1e-05 s⁻¹	–	–	–	–
A39G A42C U69G C70A	< 1e-05 s⁻¹	–	–	–	–
C8G A39U A53C C58U	< 1e-05 s⁻¹	–	–	–	–
G40U G41C A42G A52G U56G G60U	< 1e-05 s⁻¹	–	< 1e-05 s⁻¹	–	< 1e-05 s⁻¹

Variant	self-cleavage kobs at 40 uM GlcN6P (glucosamine-6-phosphate [1])	self-cleavage kobs at 160 uM GlcN6P (glucosamine-6-phosphate [2])	self-cleavage kobs at 640 uM GlcN6P (glucosamine-6-phosphate [3])	self-cleavage kobs at 10000 uM GlcN6P (glucosamine-6-phosphate [4])	self-cleavage kobs at 2500 uM GlcN6P (glucosamine-6-phosphate [5])
A52G U57A G66U	< 1e-05 s⁻¹	–	–	3.15e-05 ± 1.6e-05 s⁻¹	–
C11A G35C	< 1e-05 s⁻¹	< 1e-05 s⁻¹	< 1e-05 s⁻¹	–	< 1e-05 s⁻¹
C8A G29C	< 1e-05 s⁻¹	< 1e-05 s⁻¹	< 1e-05 s⁻¹	< 1e-05 s⁻¹	< 1e-05 s⁻¹
G13U G32A G37C A42C	< 1e-05 s⁻¹	< 1e-05 s⁻¹	–	< 1e-05 s⁻¹	< 1e-05 s⁻¹
A12G A36U A42U G51U A53C	< 1e-05 s⁻¹	–	–	–	–
G7C C10A	< 1e-05 s⁻¹	–	–	< 1e-05 s⁻¹	< 1e-05 s⁻¹
C10G G51C	< 1e-05 s⁻¹	< 1e-05 s⁻¹	< 1e-05 s⁻¹	< 1e-05 s⁻¹	–
A14U G29U G35A	< 1e-05 s⁻¹	–	–	–	–
A36G U47C	< 1e-05 s⁻¹	–	–	< 1e-05 s⁻¹	–
U45A U55G	0.00178 ± 0.00026 s⁻¹	0.00389 ± 0.0012 s⁻¹	0.00532 ± 0.0012 s⁻¹	0.0415 ± 0.013 s⁻¹	0.00894 ± 0.0023 s⁻¹
G44A U56C	< 1e-05 s⁻¹	< 1e-05 s⁻¹	–	< 1e-05 s⁻¹	–
C16G U56A C71U	0.000174 ± 5.5e-05 s⁻¹	–	–	–	–
A52C U55C	< 1e-05 s⁻¹	< 1e-05 s⁻¹	–	–	–
G43A G62C	< 1e-05 s⁻¹	–	–	< 1e-05 s⁻¹	< 1e-05 s⁻¹
C8G	< 1e-05 s⁻¹	< 1e-05 s⁻¹	< 1e-05 s⁻¹	< 1e-05 s⁻¹	< 1e-05 s⁻¹
G7A G41U A42G A52G	< 1e-05 s⁻¹	–	–	< 1e-05 s⁻¹	–
C8A A12G	< 1e-05 s⁻¹	< 1e-05 s⁻¹	< 1e-05 s⁻¹	< 1e-05 s⁻¹	< 1e-05 s⁻¹
A6C G7C A42C C71U	< 1e-05 s⁻¹	–	–	< 1e-05 s⁻¹	–
G9C A36G	< 1e-05 s⁻¹	–	< 1e-05 s⁻¹	< 1e-05 s⁻¹	–
G32U C50G C61A	0.000162 ± 2.5e-05 s⁻¹	–	–	0.000319 ± 4.2e-05 s⁻¹	–
C8A G44U	< 1e-05 s⁻¹	< 1e-05 s⁻¹	< 1e-05 s⁻¹	< 1e-05 s⁻¹	–
G7U U46G	< 1e-05 s⁻¹	< 1e-05 s⁻¹	< 1e-05 s⁻¹	< 1e-05 s⁻¹	< 1e-05 s⁻¹
